Results reported in publication PMC4390494 (Journal of immunology (Baltimore, Md. : 1950), 2015).

Target: the molecule itself
Experiment: pull-down

B1: HkRP3 (1) (aa 1-724), GST- or MBP-fused (domain or fragment, UniProt A6NC98-1 1-724, looked up)
chain: MEGGKGPRLRDFLSGSLATWALGLAGLVGEAEDSEGEEEEEEEEPPLWLEKRFLRLSDGALLLRVLGIIAPSSRGGPRMLRGLDGPAAWRVWNLNHLWGRLRDFYQEELQLLILSPPPDLQTLGFDPLSEEAVEQLEGVLRLLLGASVQCEHRELFIRHIQGLSLEVQSELAAAIQEVTQPGAGVVLALSGPDPGELAPAELEMLSRSLMGTLSKLARERDLGAQRLAELLLEREPLCLRPEAPSRAPAEGPSHHLALQLANAKAQLRRLRQELEEKAELLLDSQAEVQGLEAEIRRLRQEAQALSGQAKRAELYREEAEALRERAGRLPRLQEELRRCRERLQAAEAYKSQLEEERVLSGVLEASKALLEEQLEAARERCARLHETQRENLLLRTRLGEAHAELDSLRHQVDQLAEENVELELELQRSLEPPPGSPGEAPLAGAAPSLQDEVREAEAGRLRTLERENRELRGLLQVLQGQPGGQHPLLEAPREDPVLPVLEEAPQTPVAFDHSPQGLVQKARDGGPQALDLAPPALDSVLEASAECPQAPDSDPQEAESPLQAAAMDPQASDWSPQESGSPVETQESPEKAGRRSSLQSPASVAPPQGPGTKIQAPQLLGGETEGREAPQGELVPEAWGLRQEGPEHKPGPSEPSSVQLEEQEGPNQGLDLATGQAEAREHDQRLEGTVRDPAWQKPQQKSEGALEVQVWEGPIPGESLASGV
  binding result: binds
